Consider one molecule from paper PMC3114845, “Bordetella pertussis Autotransporter Vag8 Binds Human C1 Esterase Inhibitor and Confers Serum Resistance” (PLoS ONE, 2011).

The assay has as its target T1, histidine-tagged Vag8 passenger domain (residues Val40 to Leu610) (Bordetella pertussis, UniProt Q79GN7 40-610).
T1 construct: autotransporter Vag8, Bordetella pertussis BP338 (Tohama I derivative), predicted passenger domain, residues Val40 to Leu610; Cloned with BamHI and HindIII into pET30b; also called purified Vag8 passenger; recombinant Vag8
T1 sequence: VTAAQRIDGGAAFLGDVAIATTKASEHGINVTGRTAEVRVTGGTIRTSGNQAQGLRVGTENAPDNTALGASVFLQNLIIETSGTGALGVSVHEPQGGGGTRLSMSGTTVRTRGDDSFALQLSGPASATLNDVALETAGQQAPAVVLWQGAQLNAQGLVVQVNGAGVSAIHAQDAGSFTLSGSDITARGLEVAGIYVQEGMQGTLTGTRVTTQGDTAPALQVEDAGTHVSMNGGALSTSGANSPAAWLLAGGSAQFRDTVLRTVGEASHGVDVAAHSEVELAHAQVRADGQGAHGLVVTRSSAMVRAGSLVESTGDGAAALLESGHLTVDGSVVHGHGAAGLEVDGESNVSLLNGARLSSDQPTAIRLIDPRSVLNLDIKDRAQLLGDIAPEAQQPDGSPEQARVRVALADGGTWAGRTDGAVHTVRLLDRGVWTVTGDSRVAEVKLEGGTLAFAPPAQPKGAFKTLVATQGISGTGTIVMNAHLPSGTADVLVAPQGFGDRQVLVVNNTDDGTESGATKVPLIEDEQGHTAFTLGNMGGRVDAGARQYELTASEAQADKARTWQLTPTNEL
Nature of the assay: ELISA; MaxiSorp plates coated with two-fold dilutions of purified passenger domain (top 5 µg/ml, PBS pH 7.4, overnight 4°C); probed 1 h at room temperature with 10 µg/ml purified human C1inh; detected with goat anti-C1inh. Particulars: both partners purified. On the technique in general: An ELISA detects its analyte on a solid surface through an enzyme-linked reagent.

B1: purified human C1 esterase inhibitor (natural protein)
chain: NPNATSSSSQDPESLQDRGEGKVATTVISKMLFVEPILEVSSLPTTNSTTNSATKITANTTDEPTTQPTTEPTTQPTIQPTQPTTQLPTDSPTQPTTGSFCPGPVTLCSDLESHSTEAVLGDALVDFSLKLYHAFSAMKKVETNMAFSPFSIASLLTQVLLGAGENTKTNLESILSYPKDFTCVHQALKGFTTKGVTSVSQIFHSPDLAIRDTFVNASRTLYSSSPRVLSNNSDANLELINTWVAKNTNNKISRLLDSLPSDTRLVLLNAIYLSAKWKTTFDPKKTRMEPFHFKNSVIKVPMMNSKKYPVAHFIDQTLKAKVGQLQLSHNLSLVILVPQNLKHRLEDMEQALSPSVFKAIMEKLEMSKFQPTLLTLPRIKVTTSQDMLSIMEKLEFFDFSYDLNLCGLTEDPDLQVSAMQHQTVLELTETGVEAAAASAISVARTLLVFEVQQPFLFVLWDQQHKFPVFMGRVYDPRA
notes: also called C1inh; purified C1inh; source: bought: Advanced Research Technologies (purified human C1inh)
For B1, the binding result is “binds”.
